Assays:
[1] = biological target: human CD3 epsilon (human) (UniProt P07766); assay: cell-based or functional assay
[2] = biological target: human CD20 (human) (UniProt P11836); assay: cell-based or functional assay
Chain of human CD20 (human) (P11836 whole entry): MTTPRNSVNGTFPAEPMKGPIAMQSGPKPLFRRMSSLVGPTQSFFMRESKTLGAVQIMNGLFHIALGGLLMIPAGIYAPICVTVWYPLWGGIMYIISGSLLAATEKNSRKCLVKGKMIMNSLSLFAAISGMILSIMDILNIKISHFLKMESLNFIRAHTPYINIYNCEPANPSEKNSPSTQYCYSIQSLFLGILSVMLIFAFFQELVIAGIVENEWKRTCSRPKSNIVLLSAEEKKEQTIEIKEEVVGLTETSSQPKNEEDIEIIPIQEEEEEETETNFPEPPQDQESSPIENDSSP

Chain of human CD3 epsilon (human) (P07766 23-207): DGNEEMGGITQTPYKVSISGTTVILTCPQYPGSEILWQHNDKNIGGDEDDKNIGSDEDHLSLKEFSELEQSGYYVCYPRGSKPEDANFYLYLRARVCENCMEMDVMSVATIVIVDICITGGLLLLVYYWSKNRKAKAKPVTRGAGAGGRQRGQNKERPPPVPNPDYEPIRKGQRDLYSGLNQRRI

biological activity, T-cell activation assay [1]: 40%
biological activity, T-cell activation assay [2]: 40%
Substance: epcoritamab LMWS fraction (Fc+Fab fragment)
